We go through one molecule from patent US20030109691A1 (GENERAL HOSPITAL, published 2003).

In the assay the target is T1, CD54 (ICAM-1) (UniProt P05362 28-480, limits assumed).
T1 construct: Amine-coupled to a CM5 chip for SPR
Description: ELISA, CD11a A domain on ICAM-1.

T1 sequence (P05362 28-480 limits assumed): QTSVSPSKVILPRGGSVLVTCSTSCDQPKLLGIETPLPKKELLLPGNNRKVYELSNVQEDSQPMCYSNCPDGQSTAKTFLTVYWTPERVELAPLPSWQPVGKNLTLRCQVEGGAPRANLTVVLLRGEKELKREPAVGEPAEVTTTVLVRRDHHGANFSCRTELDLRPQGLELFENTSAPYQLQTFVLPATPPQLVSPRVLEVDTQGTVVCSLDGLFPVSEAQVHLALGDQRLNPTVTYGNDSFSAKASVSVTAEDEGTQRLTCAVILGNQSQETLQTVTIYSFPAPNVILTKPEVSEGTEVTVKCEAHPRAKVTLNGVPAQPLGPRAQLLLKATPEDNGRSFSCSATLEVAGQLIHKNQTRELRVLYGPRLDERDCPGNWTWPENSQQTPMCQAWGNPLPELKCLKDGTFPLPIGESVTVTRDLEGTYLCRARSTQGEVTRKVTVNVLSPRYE

B1: wild-type CD11a A domain (receptor, human, UniProt P20701 150-333, looked up)
chain: CIKGNVDLVFLFDGSMSLQPDEFQKILDFMKDVMKKLSNTSYQFAAVQFSTSYKTEFDFSDYVKRKDPDALLKHVKHMLLLTNTFGAINYVATEVFREELGARPDATKVLIIITDGEATDSGNIDAAKDIIRYIIGIGKHFQTKESQETLHKFASKPASEFVKILDTFEKLKDLFTELQKKIYV
notes: domain: A domain; also called wild-type protein without this substitution
B1: the binding result was “no binding”.
